Experimental data: patent publication US20120039802A1 (published 2012)

B1: 103-C04 peptide-displaying phage (SEQ ID NO: 490) (peptide)
peptide: AQKTWFLEADLFQMFQEVTWQF
B2: 79-B02 peptide-displaying phage (SEQ ID NO: 475) (peptide)
peptide: AQHWDYDSGSDFWFPVFFLEHH
B3: 93-B10 peptide-displaying phage (SEQ ID NO: 482) (peptide)
peptide: AQSDHDHAHWGVKHWPFRRYQ
B4: 15-D02 peptide-displaying phage (SEQ ID NO: 474) (peptide)
peptide: AQELFQILEKQMWSDFMEWATP
B5: 27-D10 peptide-displaying phage (SEQ ID NO: 485) (peptide)
peptide: AQVGESLDDGWTFFSDKWFDFF
B6: 149-E06 peptide-displaying phage (SEQ ID NO: 487) (peptide)
peptide: AQHMDPAEWDWFIRIYSPVVNP
B7: 98-F05 peptide-displaying phage (SEQ ID NO: 483) (peptide)
peptide: AQLFQYLWHDDPQGAFFQLSMW
B8: 136-D01 peptide-displaying phage (SEQ ID NO: 473) (peptide)
peptide: AQMGHHWDVQWDYKLFHVARGD
B9: 94-G02 peptide-displaying phage (SEQ ID NO: 477) (peptide)
peptide: AQFSGLVMYGRTHEVQWTFGSM
B10: 130-E10 peptide-displaying phage (SEQ ID NO: 472) (peptide)
peptide: AQEWEREYFVDGFWGSWFGIPH
B11: 166-H04 peptide-displaying phage (SEQ ID NO: 488) (peptide)
peptide: AQMWHRVHDPGYTFEVTWLWDN
B12: 484-D08 peptide-displaying phage (SEQ ID NO: 016) (peptide)
peptide: AGWWSCQWELNVCIWQGT
B13: 524-H02 peptide-displaying phage (SEQ ID NO: 492) (peptide)
peptide: AQVEDMATVHFKFNPATHEVIW
B14: 118-B12 peptide-displaying phage (SEQ ID NO: 484) (peptide)
peptide: AQHVVTLTLIQMPFAFNFEPRM
B15: 437-A09 peptide-displaying phage (SEQ ID NO: 018) (peptide)
peptide: AGWFECEFGFWGCNWLGT
B16: 92-B05 peptide-displaying phage (SEQ ID NO: 465) (peptide)
peptide: AQFDRYWHFAWMDVSFSSGQSG
B17: 94-B08 peptide-displaying phage (SEQ ID NO: 470) (peptide)
peptide: AQAYEWWADESIFNHGYYWGHQ
B18: 115-G02 peptide-displaying phage (SEQ ID NO: 471) (peptide)
peptide: AQDPGFSKHSMGHGYPSKMNWG
B19: 116-H02 peptide-displaying phage (SEQ ID NO: 466) (peptide)
peptide: AQKETWEFFDIVYGSGWKFNSP
B20: 117-F04 peptide-displaying phage (SEQ ID NO: 479) (peptide)
peptide: AQWPHDGLVHWGEVIMLRF
B21: 127-A07 peptide-displaying phage (SEQ ID NO: 469) (peptide)
peptide: AQGFELWVDHTRNFFIAISP
B22: 96-D06 peptide-displaying phage (SEQ ID NO: 489) (peptide)
peptide: AQWNWDMGFMWTTDSAQVQPSM
B23: 527-E08 peptide-displaying phage (SEQ ID NO: 491) (peptide)
peptide: AQWGAVDNDWYDWEMEQIWMFE
B24: 122-D07 peptide-displaying phage (SEQ ID NO: 486) (peptide)
peptide: AQFMYEKEHYVMSISLPGLWFY
B25: 94-A06 peptide-displaying phage (SEQ ID NO: 476) (peptide)
peptide: AQHGYLSPLKQYQMSHVEFWTY
B26: 151-B08 peptide-displaying phage (SEQ ID NO: 480) (peptide)
peptide: AQWNQWDEFMWFLNPPPIGLMW
B27: 76-D09 peptide-displaying phage (SEQ ID NO: 463) (peptide)
peptide: AQSPYIFPIDDSGRQIFVIQWG
B28: 75-B12 peptide-displaying phage (SEQ ID NO: 478) (peptide)
peptide: AQAEWVITSEEFYWKMADFGPP
B29: 117-F03 peptide-displaying phage (SEQ ID NO: 468) (peptide)
peptide: AQEWQTWTWNMIEVISENKTP
B30: 93-C08 peptide-displaying phage (SEQ ID NO: 464) (peptide)
peptide: AQVPDWLSAVVIEKLIEYGMMV
B31: 117-E09 peptide-displaying phage (SEQ ID NO: 481) (peptide)
peptide: AQDNTADQMFNGFHVLAMYMV
B32: 02-B08 peptide-displaying phage (SEQ ID NO: 467) (peptide)
peptide: AQHSVQRQMDVWMPVQFMAGFT
B33: 482-D02 peptide-displaying phage (SEQ ID NO: 017) (peptide)
peptide: AGYYHCIDDFPQCKWMGT

Assays:
[1] = molecular target: T1, cMet-Fc fusion protein (extracellular domain of the cMet receptor expressed as an Fc-fusion protein) (human, UniProt P08581 25-932); assay: phage ELISA, cMet-Fc vs TRAIL-Fc
T1 construct: extracellular domain; also called soluble cMet-Fc-fusion protein; soluble cMet receptor; not shown: Fc part
Outline: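 Specificity check: phage displaying peptides incubated 2 h at room temperature on wells coated with 0.5 μg/mL cMet-Fc versus TRAIL-Fc, after blocking with 3% BSA/PBST. HRP-anti-M13 antibody detected binding phage.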

[2] = molecular target: T2, human cMet expressed on 3T3 cells (human, UniProt P08581 25-1390); assay: whole cell phage ELISA, 3T3 human cMet vs 3T3
T2 construct: whole, on cells; cells fixed with glutaraldehyde; also called cell surface-expressed human cMet; 3T3 cells that over-express human cMet
Outline: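 Bound phage was detected with an HRP-conjugated anti-M13 antibody after PBST washes. The cells were cMet-over-expressing 3T3, read against plain 3T3.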

[3] = molecular target: T1, cMet-Fc fusion protein (extracellular …); assay: phage ELISA on cMet-Fc, competitor HGF 100 ng/mL
Outline: (§1)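 Plates coated with 0.5 μg/mL cMet-Fc, with TRAIL-Fc as background, then blocked with 3% BSA. Bound phage detected with HRP anti-M13 antibody.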

[4] = molecular target: T1, cMet-Fc fusion protein (extracellular …); assay: phage ELISA on cMet-Fc, competitor HGF 500 ng/mL
Outline: as §1

T2 sequence (P08581 25-1390): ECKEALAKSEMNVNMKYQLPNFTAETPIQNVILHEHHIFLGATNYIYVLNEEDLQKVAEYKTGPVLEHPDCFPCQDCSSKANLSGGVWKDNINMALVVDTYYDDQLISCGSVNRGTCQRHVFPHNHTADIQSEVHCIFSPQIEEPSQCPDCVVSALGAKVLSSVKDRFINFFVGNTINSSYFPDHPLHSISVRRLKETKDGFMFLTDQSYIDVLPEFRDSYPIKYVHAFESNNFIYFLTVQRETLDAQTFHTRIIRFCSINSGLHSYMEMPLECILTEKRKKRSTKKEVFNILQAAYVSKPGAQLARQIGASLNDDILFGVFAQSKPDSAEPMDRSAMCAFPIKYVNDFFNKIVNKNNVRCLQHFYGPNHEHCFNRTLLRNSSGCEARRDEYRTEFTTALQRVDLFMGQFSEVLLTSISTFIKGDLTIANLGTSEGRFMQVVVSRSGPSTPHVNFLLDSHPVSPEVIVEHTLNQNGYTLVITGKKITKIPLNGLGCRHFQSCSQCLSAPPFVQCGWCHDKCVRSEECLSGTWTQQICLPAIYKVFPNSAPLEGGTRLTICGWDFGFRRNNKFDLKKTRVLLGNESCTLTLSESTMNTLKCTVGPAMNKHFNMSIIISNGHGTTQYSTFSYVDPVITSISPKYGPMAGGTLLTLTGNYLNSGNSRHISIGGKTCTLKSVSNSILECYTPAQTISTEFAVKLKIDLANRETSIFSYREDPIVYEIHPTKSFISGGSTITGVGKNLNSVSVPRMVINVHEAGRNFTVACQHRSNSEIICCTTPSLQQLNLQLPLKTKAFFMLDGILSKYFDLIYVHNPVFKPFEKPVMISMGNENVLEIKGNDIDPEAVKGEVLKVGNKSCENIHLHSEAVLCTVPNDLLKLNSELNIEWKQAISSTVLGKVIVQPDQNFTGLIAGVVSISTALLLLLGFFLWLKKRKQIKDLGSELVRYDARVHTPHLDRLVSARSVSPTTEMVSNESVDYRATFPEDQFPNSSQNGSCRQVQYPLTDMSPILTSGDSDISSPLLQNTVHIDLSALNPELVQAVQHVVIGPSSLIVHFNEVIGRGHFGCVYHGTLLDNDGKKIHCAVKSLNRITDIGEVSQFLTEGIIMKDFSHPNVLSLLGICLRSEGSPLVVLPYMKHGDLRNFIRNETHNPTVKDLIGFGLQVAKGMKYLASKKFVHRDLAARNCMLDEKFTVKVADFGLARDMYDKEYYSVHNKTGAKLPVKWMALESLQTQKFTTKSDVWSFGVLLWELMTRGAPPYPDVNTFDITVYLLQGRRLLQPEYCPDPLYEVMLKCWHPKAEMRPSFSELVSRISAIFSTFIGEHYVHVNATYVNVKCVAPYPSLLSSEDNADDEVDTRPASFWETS
T1 sequence (P08581 25-932): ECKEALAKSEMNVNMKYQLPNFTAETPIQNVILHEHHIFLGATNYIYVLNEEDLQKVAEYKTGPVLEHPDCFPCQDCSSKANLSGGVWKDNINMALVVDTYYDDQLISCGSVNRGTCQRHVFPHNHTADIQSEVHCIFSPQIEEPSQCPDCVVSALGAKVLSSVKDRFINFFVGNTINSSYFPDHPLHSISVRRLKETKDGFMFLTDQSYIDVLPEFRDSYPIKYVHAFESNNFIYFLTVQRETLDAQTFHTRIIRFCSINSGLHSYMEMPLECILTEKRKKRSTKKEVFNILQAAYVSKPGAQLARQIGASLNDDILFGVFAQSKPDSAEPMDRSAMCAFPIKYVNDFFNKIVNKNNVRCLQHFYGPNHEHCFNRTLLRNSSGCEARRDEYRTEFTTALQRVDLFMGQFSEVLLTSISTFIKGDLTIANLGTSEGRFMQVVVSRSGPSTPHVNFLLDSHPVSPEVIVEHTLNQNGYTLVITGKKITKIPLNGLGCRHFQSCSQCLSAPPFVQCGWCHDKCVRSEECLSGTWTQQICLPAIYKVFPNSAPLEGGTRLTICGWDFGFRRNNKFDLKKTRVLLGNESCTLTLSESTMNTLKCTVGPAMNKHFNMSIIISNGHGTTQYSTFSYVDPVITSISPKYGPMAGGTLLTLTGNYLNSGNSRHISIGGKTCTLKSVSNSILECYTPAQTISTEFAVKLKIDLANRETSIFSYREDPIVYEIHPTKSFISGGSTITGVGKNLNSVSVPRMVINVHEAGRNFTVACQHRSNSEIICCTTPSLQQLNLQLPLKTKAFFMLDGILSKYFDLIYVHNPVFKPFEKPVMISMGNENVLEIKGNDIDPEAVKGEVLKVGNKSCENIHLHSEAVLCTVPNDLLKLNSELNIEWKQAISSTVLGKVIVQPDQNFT

Binder | Protein ELISA (fold over background) [1] [fold] | WC ELISA (fold over background) [2] [fold] | % of binding in the absence of HGF [3] [%] | % of binding in the absence of HGF [4] [%]
B1 | 3 | 1.4 | 73 | 86
B2 | 3.5 | 1.3 | 102 | 86
B3 | 3.1 | 1.2 | 0 | 0
B4 | 3.6 | 1.23 | 97 | 118
B5 | 3 | 1.17 | 111 | 131
B6 | 3 | 1.8 | 80 | 86
B7 | 3.1 | 1.23 | 88 | 57
B8 | 3.7 | 1.23 | 85 | 149
B9 | 3.5 | 1.3 | 108 | 76
B10 | 3.7 | 1.8 | 100 | 92
B11 | 3 | 1.27 | 77 | 85
B12 | 4.1 | 1.33 | 105 | 90
B13 | 3.2 | 1.53 | 26 | 25
B14 | 3.1 | 1.3 | 98 | 112
B15 | 3.9 | 1.13 | 89 | 78
B16 | 4.3 | 1.2 | 94 | 94
B17 | 3.8 | 1.2 | 111 | 121

Binder | Protein ELISA (fold over background) [1] [fold] | WC ELISA (fold over background) [2] [fold] | % of binding in the absence of HGF [3] [%] | % of binding in the absence of HGF [4] [%]
B18 | 3.7 | 1.27 | 59 | 0
B19 | 4 | 1.23 | 84 | 72
B20 | 3.3 | 1.37 | 93 | 91
B21 | 3.8 | 1.2 | 101 | 107
B22 | 3 | 1.37 | 154 | 151
B23 | 3.2 | 1.23 | 98 | 95
B24 | 3 | 1.63 | 102 | 92
B25 | 3.5 | 1.17 | 84 | 96
B26 | 3.3 | 1.23 | 102 | 368
B27 | 4.4 | 1.23 | 79 | 87
B28 | 3.4 | 1.23 | 95 | 108
B29 | 3.8 | 1.4 | 104 | 93
B30 | 4.4 | 1.37 | 101 | 96
B31 | 3.3 | 1.37 | 109 | 102
B32 | 3.9 | 1.3 | 84 | 96
B33 | 3.9 | 1.37 | 66 | 44
